According to US20090214662A1 (UNIVERSITY OF MARYLAND BALTIMORE, published 2009):

Columns and labels:
[1] = target: Lactobacillus brevis ATCC 8287 SlpA surface layer protein (Lactobacillus brevis ATCC 8287) (UniProt Q05044); assay: SPR (BIAcore 3000), SlpA immobilised on CM5 chip, fibronectin injected, 1:1 Langmuir fit
[2] = target: Lactobacillus brevis ATCC 8287 SlpA surface layer protein (Lactobacillus brevis ATCC 8287) (UniProt Q05044); assay: SPR (BIAcore 3000), immobilised SlpA preincubated with 1 mM benzamidine, fibronectin injected, steady-state evaluation
[3] = target: Lactobacillus brevis ATCC 8287 SlpA surface layer protein (Lactobacillus brevis ATCC 8287) (UniProt Q05044); assay: SPR (BIAcore 3000), Kd of laminin compared with Kd of fibronectin on immobilised SlpA
[4] = target: Lactobacillus brevis ATCC 8287 SlpA surface layer protein (Lactobacillus brevis ATCC 8287) (UniProt Q05044); assay: SPR (BIAcore 3000), SlpA immobilised on CM5 chip, collagen injected, 1:1 Langmuir fit
[5] = target: T1, Fibrinogen (human plasma) (human, UniProt P02671 20-629; P02675 31-491; P02679 27-453, limits assumed); assay: SPR (BIAcore 3000), SlpA immobilised on CM5 chip, fibrinogen injected; Table 2 value
T1 construct: mature; Bought from Calbiochem
T1 sequence (looked up) 1: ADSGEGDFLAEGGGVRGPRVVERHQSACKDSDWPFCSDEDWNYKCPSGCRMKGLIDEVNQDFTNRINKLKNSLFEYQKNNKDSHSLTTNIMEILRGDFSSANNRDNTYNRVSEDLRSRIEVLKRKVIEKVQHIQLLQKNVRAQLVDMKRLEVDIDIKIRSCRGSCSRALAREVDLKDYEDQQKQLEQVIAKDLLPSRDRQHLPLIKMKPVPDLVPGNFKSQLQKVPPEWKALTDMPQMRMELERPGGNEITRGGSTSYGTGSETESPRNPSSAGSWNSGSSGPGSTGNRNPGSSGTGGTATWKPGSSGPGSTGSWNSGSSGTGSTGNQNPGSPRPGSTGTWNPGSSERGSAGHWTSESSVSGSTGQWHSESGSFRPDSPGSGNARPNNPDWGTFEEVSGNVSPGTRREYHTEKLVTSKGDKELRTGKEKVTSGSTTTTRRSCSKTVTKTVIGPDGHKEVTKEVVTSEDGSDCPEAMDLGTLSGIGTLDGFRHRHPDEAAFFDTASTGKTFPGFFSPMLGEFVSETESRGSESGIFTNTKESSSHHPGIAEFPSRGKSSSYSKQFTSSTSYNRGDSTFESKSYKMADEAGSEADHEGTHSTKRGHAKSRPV
T1 sequence (looked up) 2: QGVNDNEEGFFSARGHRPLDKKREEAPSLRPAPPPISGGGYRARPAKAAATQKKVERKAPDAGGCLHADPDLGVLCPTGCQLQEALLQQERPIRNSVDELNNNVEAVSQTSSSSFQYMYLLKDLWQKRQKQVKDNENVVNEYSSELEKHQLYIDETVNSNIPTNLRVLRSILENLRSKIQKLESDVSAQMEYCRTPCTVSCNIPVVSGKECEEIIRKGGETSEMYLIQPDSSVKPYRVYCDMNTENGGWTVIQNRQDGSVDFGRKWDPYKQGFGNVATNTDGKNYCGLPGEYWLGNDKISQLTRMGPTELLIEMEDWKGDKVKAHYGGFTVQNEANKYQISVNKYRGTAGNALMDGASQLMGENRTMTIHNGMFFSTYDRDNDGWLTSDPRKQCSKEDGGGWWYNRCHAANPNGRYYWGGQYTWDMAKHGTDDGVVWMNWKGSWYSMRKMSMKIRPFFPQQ
T1 sequence (looked up) 3: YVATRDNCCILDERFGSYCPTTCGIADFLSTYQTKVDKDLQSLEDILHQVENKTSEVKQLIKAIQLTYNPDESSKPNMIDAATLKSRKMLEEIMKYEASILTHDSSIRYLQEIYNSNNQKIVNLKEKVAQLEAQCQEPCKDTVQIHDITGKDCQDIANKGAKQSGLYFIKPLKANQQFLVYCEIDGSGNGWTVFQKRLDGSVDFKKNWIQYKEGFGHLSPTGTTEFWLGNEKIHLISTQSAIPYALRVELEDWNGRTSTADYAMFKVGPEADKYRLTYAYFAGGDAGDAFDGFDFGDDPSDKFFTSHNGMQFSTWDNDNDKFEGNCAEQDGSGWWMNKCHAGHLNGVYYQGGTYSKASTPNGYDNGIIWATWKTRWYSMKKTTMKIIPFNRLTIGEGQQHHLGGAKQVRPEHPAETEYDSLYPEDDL
Experimental: (§1) The interaction between SlpA and extracellular matrix components was evaluated by surface plasmon resonance on a BIAcore 3000 instrument. Purified SlpA protein in 5M LiCl was dialyzed against double-distilled water overnight. Monomeric and/or oligomeric protein was separated from self-assembled material by centrifugation at 20,000×g for 20 min. SlpA protein (50 ug/ml in 10 mM Sodium Phosphate pH 7.4) was covalently coupled to CM5 carboxylated dextran chips using N-hydroxysuccinimide (NHS) chemistry. […] Kinetic analysis was carried out at 25° C. in 10 mM HEPES, 150 mM NaCl, 3 mM EDTA, 0.005% surfactant P20, pH 7.4. […] Binding was determined experimentally by comparing the number of RU's observed as a function of time to an activated and blocked flow cell containing no linked protein. […] Data were evaluated using the BIAevaluation 4.1 software. The association and dissociation data were modeled with the BIAevaluation 4.1 software (Pharmacia Biosensor AB). Following subtraction of data from the control flow cell, the binding data produced for the various protein concentrations were fitted simultaneously, assuming the 1:1 Langmuir model.
(§2) The association and dissociation rate constants were estimated from the binding data at different concentrations using the BIAevaluation software and from these values the binding constant was calculated (Table 2).

[6] = target: T2, Laminin (basement membrane of Engelbreth-Holm-Swarm mouse sarcoma) (mouse, UniProt P19137 25-3083; P02469 22-1786; P02468 34-1607); assay: SPR (BIAcore 3000), immobilised SlpA preincubated with 1 mM benzamidine, laminin injected, 1:1 Langmuir fit
T2 construct: mature; Bought from Sigma

[7] = target: T2, Laminin (basement membrane of …); assay: SPR (BIAcore 3000), SlpA immobilised on CM5 chip, laminin injected, 1:1 Langmuir fit
Experimental: as §1, §2

Question: Which Kd [1] does the source give for “Fibronectin (human plasma) (from UniProt P02751 32-2477)” here?
Answer: The Kd was 0.0898 µM.

Question: And the koff [1]?
Answer: Its koff is 0.00632 s⁻¹.

Question: What about the Kd [2] of the same molecule?
Answer: Its Kd is 30.1 µM.

Question: With “Laminin (basement membrane of Engelbreth-Holm-Swarm mouse sarcoma), P19137 25-3083; P02469 22-1786; P02468 34-1607” as the molecule, how does the fold higher affinity than for fibronectin [3] read?
Answer: Its fold higher affinity than for fibronectin is 3 fold.

Question: What does the source list for “Collagen (human placenta Type IV) (from UniProt P02462 28-1440; P08572 26-1484)”?
Answer: Kd [4]: 31.8 µM; koff [4]: 0.0011 s⁻¹

B1: Lactobacillus brevis ATCC 8287 SlpA surface layer protein (other, UniProt Q05044 31-465, looked up)
chain: KSYATAGAYSTLKTDAATRNVEATGTNALYTKPGTVKGAKVVASKATMAKLASSKKSADYFRAYGVKTTNRGSVYYRVVTMDGKYRGYVYGGKSDTAFAGGIKSAETTTKADMPARTTGFYLTDTSKNTLWTAPKYTQYKASKVSLYGVAKDTKFTVDQAATKTREGSLYYHVTATNGSGISGWIYAGKGFSTTATGTQVLGGLSTDKSVTATNDNSVKIVYRTTDGTQVGSNTWVTSTDGTKAGSKVSDKAADQTALEAYINANKPSGYTVTNPNAADATYGNTVYATVSQAATSKVALKVSGTPVTTALTTADANDKVAANDTTANGSSVAGSTVYAAGTKLAQLTTDLTGEKGQVVTLTAIDTDLEDATFTGTTTYYSDLGKAYHYTYTYNKDSAASSNASTQFGSNVTGTLTATLVMGKSTATANGTTWFN
notes: mature; Native protein purified from the bacterium; The soluble monomeric and/or oligomeric fraction after dialysis and centrifugation was covalently coupled (NHS chemistry) to a CM5 chip, about 1700 RU; also called S-layer protein; Surface Layer Protein A
Question: With B1 as the molecule, how does the Kd [5] read?
Answer: Its Kd is 26.1 µM.

Question: And the Kd [6]?
Answer: The Kd was 0.066 µM.

Question: What about the koff [6] of the same molecule?
Answer: The koff was 0.002 s⁻¹.

Question: What about the Kd [7] of the same molecule?
Answer: Its Kd is 0.0267 µM.

Question: And the koff [7]?
Answer: Its koff is 0.0013 s⁻¹.
